Test results published in US20120135923A1 (IPSEN PHARMA S A S, published 2012).
Bridge positions count the residues as written; N and C are the ends. Square brackets hold non-standard residues; d marks the D form. Ends that are not written are not given here. 2Nal = N[C@@H](Cc1ccc2ccccc2c1)C(=O)O; Cha = N[C@@H](CC1CCCCC1)C(=O)O; Pen = CC(C)(S)[C@H](N)C(=O)O; Nle = CCCC[C@H](N)C(=O)O; Ahx = NCCCCCC(=O)O; Ava = NCCCCC(=O)O; GABA = NCCCC(=O)O

B1: Ac-Cha-c(Cys-His-D-Phe-Arg-Trp-Gaba-Cys)-NH2 (peptide)
peptide: Ac-[Cha]CH[dF]RW[GABA]C-NH2
modifications: disulfide 2-8
B2: Ac-Nle-c(Cys-His-D-Phe-Arg-Trp-Apn-Cys)-NH2 (peptide)
peptide: Ac-[Nle]CH[dF]RW[Ava]C-NH2
modifications: disulfide 2-8
SMILES: CCCC[C@H](NC(C)=O)C(=O)N[C@H]1CSSC[C@@H](C(N)=O)NC(=O)CCCCNC(=O)[C@H](Cc2c[nH]c3ccccc23)NC(=O)[C@H](CCCNC(=N)N)NC(=O)[C@@H](Cc2ccccc2)NC(=O)[C@H](Cc2c[nH]cn2)NC1=O
B3: Nle-c(Cys-His-D-Phe-Arg-Trp-Apn-Cys)-NH2 (peptide)
peptide: [Nle]CH[dF]RW[Ava]C-NH2
modifications: disulfide 2-8; N-terminus assumed
SMILES: CCCC[C@H](N)C(=O)N[C@H]1CSSC[C@@H](C(N)=O)NC(=O)CCCCNC(=O)[C@H](Cc2c[nH]c3ccccc23)NC(=O)[C@H](CCCNC(=N)N)NC(=O)[C@@H](Cc2ccccc2)NC(=O)[C@H](Cc2c[nH]cn2)NC1=O
B4: Ac-Nle-c(Cys-His-D-Phe-Arg-Trp-Ahx-Cys)-NH2 (peptide)
peptide: Ac-[Nle]CH[dF]RW[Ahx]C-NH2
modifications: disulfide 2-8
B5: Ac-Ile-c(Cys-His-D-Phe-Arg-Trp-Gaba-Cys)-NH2 (peptide)
peptide: Ac-ICH[dF]RW[GABA]C-NH2
modifications: disulfide 2-8
SMILES: CC[C@H](C)[C@H](NC(C)=O)C(=O)N[C@H]1CSSC[C@@H](C(N)=O)NC(=O)CCCNC(=O)[C@H](Cc2c[nH]c3ccccc23)NC(=O)[C@H](CCCNC(=N)N)NC(=O)[C@@H](Cc2ccccc2)NC(=O)[C@H](Cc2c[nH]cn2)NC1=O
B6: Ac-Leu-c(Cys-His-D-Phe-Arg-Trp-Gaba-Cys)-NH2 (peptide)
peptide: Ac-LCH[dF]RW[GABA]C-NH2
modifications: disulfide 2-8
B7: Ac-Val-c(Cys-His-D-Phe-Arg-Trp-Gaba-Cys)-NH2 (peptide)
peptide: Ac-VCH[dF]RW[GABA]C-NH2
modifications: disulfide 2-8
SMILES: CC(=O)N[C@H](C(=O)N[C@H]1CSSC[C@@H](C(N)=O)NC(=O)CCCNC(=O)[C@H](Cc2c[nH]c3ccccc23)NC(=O)[C@H](CCCNC(=N)N)NC(=O)[C@@H](Cc2ccccc2)NC(=O)[C@H](Cc2c[nH]cn2)NC1=O)C(C)C
B8: Ac-2-Nal-c(Cys-His-D-Phe-Arg-Trp-Gaba-Cys)-NH2 (peptide)
peptide: Ac-[2Nal]CH[dF]RW[GABA]C-NH2
modifications: disulfide 2-8
B9: Nle-c(Cys-His-D-Phe-Arg-Trp-Gaba-Cys)-NH2 (peptide)
peptide: [Nle]CH[dF]RW[GABA]C-NH2
modifications: disulfide 2-8
B10: Ac-Nle-c(Cys-His-Phe-Arg-D-Trp-Gaba-Cys)-NH2 (peptide)
peptide: Ac-[Nle]CHFR[dW][GABA]C-NH2
modifications: disulfide 2-8
notes: Phe 4 is the L form here
B11: Ac-Nle-c(Cys-His-D-Phe-Arg-Trp-Gaba-Pen)-NH2 (peptide)
peptide: Ac-[Nle]CH[dF]RW[GABA][Pen]-NH2
modifications: disulfide 2-8

The binders below were run against T1, hMC1-R (human, UniProt Q01726 1-317) (assay: ratio Ki hMC1-R / Ki hMC4-R, same assay).
T1 construct: whole, on cells; Assayed as membranes of CHO-K1 cells expressing the receptor; also called hMC-R receptor subtype 1; melanocyte-specific receptor (MC1-R)
T1 sequence (Q01726 whole entry): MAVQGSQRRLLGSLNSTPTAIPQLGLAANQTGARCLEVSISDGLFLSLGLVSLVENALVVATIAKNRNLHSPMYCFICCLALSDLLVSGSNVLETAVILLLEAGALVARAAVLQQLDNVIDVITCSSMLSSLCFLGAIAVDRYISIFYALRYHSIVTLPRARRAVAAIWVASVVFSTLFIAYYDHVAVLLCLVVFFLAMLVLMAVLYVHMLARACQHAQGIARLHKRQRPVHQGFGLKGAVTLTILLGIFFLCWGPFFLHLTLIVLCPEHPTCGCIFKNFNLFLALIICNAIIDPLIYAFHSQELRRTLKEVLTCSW
Method: Cellular membranes used for the in vitro receptor binding assays were obtained from transgenic CHO-K1 cells stably expressing hMC-R receptor subtypes 1, 3, 4 or 5. […] The pellets were resuspended in the same buffer and centrifuged at 50,000 g for 10 minutes at approximately 4° C. The washed pellets containing the cellular membranes were stored at approximately −80° C.
Competitive inhibition of [¹²⁵I](Tyr²)-(Nle⁴-D-Phe⁷)α-MSH ([¹²⁵I]-NDP-α-MSH, Amersham Biosciences®) binding was carried out in polypropylene 96 well plates. Cell membranes (1-10 μg protein/well) prepared as described above were incubated in 50 mM Tris-HCl at pH 7.4 containing 0.2% bovine serum albumin (BSA), 5 mM MgCl₂, 1 mM CaCl₂ and 0.1 mg/mL bacitracin, with increasing concentrations of the test compound and 0.1-0.3 nM […] for approximately 90-120 minutes at approximately 37° C. Bound [¹²⁵I]-NDP-α-MSH ligand was separated from free [¹²⁵I]-NDP-α-MSH by filtration through GF/C glass fiber filter plates (Unifilter®; Packard) presoaked with 0.1% (w/v) polyethylenimine (PEI), using a Packard Filtermate® harvester. Filters were washed three times with 50 mM Tris-HCl at pH 7.4 at a temperature of approximately 0-4° C. and then assayed for radioactivity using a Packard Topcount® scintillation counter. Binding data were analyzed by computer-assisted non-linear regression analysis (XL fit; IDBS).

Ki hMC1-R/MC4-R | Binder
0.12 | B1
0.11 | B2
0.1 | B3
0.11 | B4
0.14 | B5
0.22 | B6
0.13 | B7
0.19 | B8
0.1 | B9
0.04 | B10
0.3 | B11

What follows are binders tested against T1, hMC1-R (assay: competition with [125I]-NDP-α-MSH, CHO-K1 membranes).

Ki | Binder
0.107 nM | B1
0.0951 nM | B2
0.07 nM | B3
0.0132 nM | B4
0.148 nM | B5
0.216 nM | B6
0.256 nM | B7
0.56 nM | B8
0.05 nM | B9
5.2 nM | B10
0.12 nM | B11

These binders were tested against T2, hMC3-R (human, UniProt P41968 1-323) in the same assay as above.
T2 construct: whole, on cells; Assayed as membranes of CHO-K1 cells expressing the receptor; also called hMC-R receptor subtype 3; melacortin-3 (MC3-R)
T2 sequence (P41968 whole entry): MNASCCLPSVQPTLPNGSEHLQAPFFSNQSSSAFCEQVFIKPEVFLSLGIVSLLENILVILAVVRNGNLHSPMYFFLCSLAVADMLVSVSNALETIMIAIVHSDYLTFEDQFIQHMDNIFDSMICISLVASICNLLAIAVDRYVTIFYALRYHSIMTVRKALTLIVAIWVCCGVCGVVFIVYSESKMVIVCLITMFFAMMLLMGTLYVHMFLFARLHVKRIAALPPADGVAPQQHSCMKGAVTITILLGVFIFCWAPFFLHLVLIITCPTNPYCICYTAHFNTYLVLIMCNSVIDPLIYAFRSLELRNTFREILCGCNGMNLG

Ki | Binder
9.11 nM | B1
9.33 nM | B2
4.1 nM | B3
16.1 nM | B4
13.9 nM | B5
17.4 nM | B6
29.9 nM | B7
39.2 nM | B8
1.3 nM | B9
150 nM | B10
10 nM | B11

These binders were tested against T3, hMC4-R (human, UniProt P32245 1-332) in the same assay as above.
T3 construct: whole, on cells; Assayed as membranes of CHO-K1 cells expressing the receptor; also called hMC-R receptor subtype 4; melanocortin-4 (MC4-R)
T3 sequence (P32245 whole entry): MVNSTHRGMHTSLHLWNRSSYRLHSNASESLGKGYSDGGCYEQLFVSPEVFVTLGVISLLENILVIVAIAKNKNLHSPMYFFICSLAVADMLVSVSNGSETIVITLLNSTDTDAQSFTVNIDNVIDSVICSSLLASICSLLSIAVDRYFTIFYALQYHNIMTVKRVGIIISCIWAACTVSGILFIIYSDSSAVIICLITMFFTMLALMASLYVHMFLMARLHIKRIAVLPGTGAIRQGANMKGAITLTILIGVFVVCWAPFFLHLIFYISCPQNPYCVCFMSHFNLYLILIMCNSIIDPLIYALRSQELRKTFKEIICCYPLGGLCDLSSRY

Ki | Binder
0.884 nM | B1
0.894 nM | B2
0.85 nM | B3
1.23 nM | B4
1.06 nM | B5
0.995 nM | B6
1.98 nM | B7
2.94 nM | B8
0.47 nM | B9
138 nM | B10
0.43 nM | B11

The binders below were run against T4, hMC5-R (human, UniProt P33032 1-325) in the same assay as above.
T4 construct: whole, on cells; Assayed as membranes of CHO-K1 cells expressing the receptor; also called hMC-R receptor subtype 5; melanocortin-5 receptor (MC5-R)
T4 sequence (P33032 whole entry): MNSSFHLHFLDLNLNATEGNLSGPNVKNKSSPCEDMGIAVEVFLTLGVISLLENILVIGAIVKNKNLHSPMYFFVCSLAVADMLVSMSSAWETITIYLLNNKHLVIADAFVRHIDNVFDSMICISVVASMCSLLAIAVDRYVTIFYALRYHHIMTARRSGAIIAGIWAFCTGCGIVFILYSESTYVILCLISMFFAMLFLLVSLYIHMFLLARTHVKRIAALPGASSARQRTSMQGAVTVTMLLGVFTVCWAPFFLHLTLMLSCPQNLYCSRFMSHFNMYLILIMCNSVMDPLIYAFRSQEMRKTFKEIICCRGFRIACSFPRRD

Ki | Binder
0.354 nM | B1
13.4 nM | B2
8.8 nM | B3
0.359 nM | B4
0.423 nM | B5
0.486 nM | B6
0.864 nM | B7
2.73 nM | B8
0.2 nM | B9
20.3 nM | B10
0.42 nM | B11
